Source: the DeepSol protein solubility set

Experiment: soluble on expression in E. coli; label from the status in PepcDB or PDB records

Sequence | soluble on expression in E. coli
MSRSRSAAASSSQKPDDMDLMSPDGSASSPSAPNTPATNSGGFSSDRKKATHLRCERQRREAINSGYSDLKDLIPQTTTSLGCKTTNAAILFRACDFMSQLKTDISDADKQLAQLNAQAAALEMIASEYEQMASSVPDAGQSTIQVKMLQLLLDDCFTSFSSQVDFTTYATITRTLLSWVESLAPNAEPFKSTAGKMVTMPFTSP | not soluble
MSTSSNKSDAIKQTRAFSILLMGVDTGSSERASKWEGNSDSMILVTVNPKTKKTTMTSLERDTLTTLSGPKNNEMNGVEAKLNAAYAAGGAQMAIMTVQDLLNITIDNYVQINMQGLIDLVNAVGGITVTNEFDFPISIAENEPEYQATVAPGTHKINGEQALVYARMRYDDPEGDYGRQKRQREVIQKVLKKILALDSISSYRKILSAVSSNMQTNIEISSRTIPSLLGYRDALRTIKTYQLKGEDATLSDGGSYQIVTSNHLLEIQNRIRTELGLHKVNQLKTNATVYENLYGSTKSQTVNNNYDSSGQAPSYSDSHSSYANYSSGVDTGQSASTDQDSTASSHRPATPSSSSDALAADESSSSGSGSLVPPANINPQTLEHHHHHH | soluble
MNTSELETLIRTILSEQLTTPAQTPVQPQGKGIFQSVSEAIDAAHQAFLRYQQCPLKTRSAIISAMRQELTPLLAPLAEESANETGMGNKEDKFLKNKAALDNTPGVEDLTTTALTGDGGMVLFEYSPFGVIGSVAPSTNPTETIINNSISMLAAGNSIYFSPHPGAKKVSLKLISLIEEIAFRCCGIRNLVVTVAEPTFEATQQMMAHPRIAVLAITGGPGIVAMGMKSGKKVIGAGAGNPPCIVDETADLVKAAEDIINGASFDYNLPCIAEKSLIVVESVAERLVQQMQTFGALLLSPADTDKLRAVCLPEGQANKKLVGKSPSAMLEAAGIAVPAKAPRLLIALVNADDPWVTSEQLMPMLPVVKVSDFDSALALALKVEEGLHHTAIMHSQNVSRLNLAARTLQTSIFVKNGPSYAGIGVGGEGFTTFTIATPTGEGTTSARTFARSRRCVLTNGFSIR | not soluble
MSLRRTRIRFEAWTAENAHRYHSLAHALPQLGARRPTGLLLDEAGRAAIPFLRTGQFIIGLGDPAGSERNCVAAIWRLRDLALQEGCKLAFIQVGQSLMAVYNDLGLTVCPDRTAGTVCCFSEDYRMLRAFLKGEERLARKREGHHHHHH | not soluble
MKFGIVARRDKEEALKLAYRVYDFLKVHGYEVVVDKETYEHFPHFKEGDVIPLDEFDVDFIVAIGGDGTILRIEHMTKKDIPILSINMGTLGFLTEVEPSDTFFALNRLIEGEYYIDERIKVRTYIDGENRVPDALNEVAILTGIPGKIIHMKYYVDGGLADEVRADGLVVSTPTGSTGYAMSAGGPFIDPRLDVILIAPLLPLPKTSVPMVIPGSSRIDIRMLTDREIILAIDGQYYEHLPPNVEITVVKSPRKTKFIRFTREIYPKYTIRIKERHMAGDPLEHHHHHH | not soluble
MSLKTGRALRIAVLVSGRLNLWFSSSIIEGLNEVFHDEGYDISIYQMSSTEERSEFFDMLPVRRNVDAVIVISFDIASNEIRQLRSVDVPIIGINSSLPEERGFNAAVRIDDKQGSELAARHLMMLGHRDIVYIRSDREVTLHFSVQGRYESFMACCQANGVEPRVLVTDAGRNRISKVVTQLLSLDHMPTAIACQEDGIAVPLLFQLERNGFTVPNDISIIGYDDSVYARDLGLTTIRQTPVEMAREAARMTLALIEKQPLDEPFKTFPAQLIVRSTTARLHSEGHHHHHH | soluble
PSTVSHFMAFNPKNDVLNQRTIREAISKSIDAKDIAGKSVNGLFQKNVQFVTKNNQQPHDYDMKAAERLLKSEGYHKNDDGIFEKNGKPLSFNLVIQTAEFPNWKDKAEKVQRQLKQAGIKLNVKTLDSQSYYDTLWTKKDYDLIFYRTYSDALMPYNFISSVFKNNDGQPGVLADDETLTKQLDDFPSTVSKEDQQCSFDDIFKHFNQQYYGVPIAYPNETFVVSDKV | soluble
MAHHHHHHMDLNDFLRNTKTAAQDGSAGVRTLLSGHKRFADTNEASAEASSSGAGASGKRPRRSGTAEGLNIRAAQEALAQERGNTSAQAQQQRAQAELLSEQAAARMVHQVLEYVMQVELGGRHNAAKGGIAPFVPSAAQLAAEKAMWTPAAGYVIHHVVPATLDTSPHTLESLMSVTEKERVPDGVRALRGTLQVFDTERDLVGGVRTGMAPHLRTHVLEVLEKGLHGRAWLRDDAAVATQISALGKPTTPDKGPSSVLLFGDLATASVANSDATSSARDTASAGDEASKPRSKGFSLAAFLNGNDPTSSSSDGEDP | not soluble
RTDTIMVLNVGNKDKKIKMVSFMRDTLVNIKGVSADNYSYDNKLNSAFNIGEQDNNQGAELMRQTLKRNFDIDIKYYVMVDFQTFAEAIDTLFPNGVEINAKFATVGGEAVDSVEVPDDLNMKDGVVPNQTISVGKQKMDGRTLLNYARFRKDDEGDFGRTKRQQQVMSAIMSQIKD | not soluble
GSHMDTSLAEEVQQTMATLAPNRFFFMSPYRSFTTSGCFARFDEPAVNGDSPDSPFQQKLAALFADAKAQGIKNPVMVGAIPFDPRQPSSLYIPESWQSFSRQEKQASARRFTRSQSLNVVERQAIPEQTTFEQMVARAAALTATPQVDKVVLSRLIDITTDAAIDSGVLLERLIAQNPVSYNFHVPLADGGVLLGASPELLLRKDGERFSSIPLAGSARRQPDEVLDREAGNRLLASEKDRHEHELVTQAMKEVLRERSSELHVPSSPQLITTPTLWHLATPFEGKANSQENALTLACLLHPTPALSGFPHQAATQVIAELEPFDRELFGGIVGWCDSEGNGEWVVTIRCAKLRENQVRLFAGAGIVPASSPLGEWRETGVKLSTMLNVFGLH | soluble
MSKRLPPLNALRVFDAAARHLSFTRAAEELFVTQAAVSHQIKSLEDFLGLKLFRRRNRSLLLTEEGQSYFLDIKEIFSQLTEATRKLQARSAKGALTVSLPPSFAIQWLVPRLSSFNSAYPGIDVRIQAVDRQEDKLADDVDVAIFYGRGNWPGLRVEKLYAEYLLPVCSPLLLTGEKPLKTPEDLAKHTLLHDASRRDWQAYTRQLGLNHINVQQGPIFSHSAMVLQAAIHGQGIALANNVMAQSEIEAGRLVCPFNDVLVSKNAFYLVCHDSQAELGKIAAFRQWILAKAATEQEKFRFRYEQ | not soluble
MRSGQMEIIIGWLYPQLMSTYGDRGNVIIIERRAQWREYNVTVLPLDQNSTPDDLKSVDVIVGGGAQDRQQEIVMRDLQGAKADAMREKIENGTPGVFTCGSPQLLGHYYEPGFGQRIEGLGILDLVSIHPGENTKRCIGNLVIEVTASRFAQELEAMTGTKPYLVGFENHGGRTKLGKVEALGRVVYGLGNNGEDGTEGAFYQNAIATYSHGPLLPKNPFVADWLIQTALRLKYQEEIQLSPLNDTLAMQGREAMFKRLKVNLPLAGRI | not soluble
MGSDKIHHHHHHMENVREILQELMSKRKLDQRFNNVMKSVYSDPEVISFCEEHQDELSKEAIERGAAKLYEFVSERNKIKNNQATFLPGYQPELVLSNHLIDIEYVPTKQTHLLEQERHRKALVKSISMPKLIRHASLEGYYQEPERTDALAKTLAFVNEYLERPQDWHKGLYLTGSFGVGKTYLMGAMGNALADEGYSTTIVHFPSLAVELKNAIGSSNTIQTKIDAIKKAPILVIDDIGADSISSWIRDDVLGVILEYRMQEELPTFFTSNFSMDQLEREHLTVNQRGEAEPLKAKRLMERIKFLSEEVSMTGKNHRQD | not soluble
MAHHHHHHMHLKECPPASSVGWLRPSLTIYMFGSKSLALSSAVFVLDCFTMGRKQRLLSAVVNVPLTLRLMLYFSASYKGEEPRLPPSTCVLGSSQGNNFLLLPGAFAESGCTTFFPGREGLMSELQDELWLQLPSRLLILARLDLANFLFAVVGRLPNSGINLFQQRPPSSLAVLPKRCMGMTLVALTTL | not soluble
MSLGQKVVAMLDFLLAYSDYSKDFRPLIIDQPEDNLDNRYIYRHLVQQFRDVKAQRQIILATHNATIVTNSMTDQVVIMESDGVNGWIESQGYVSEKYIKNHIINQLEGGKDSFKHKMSIYETALSEGHHHHHH | not soluble
MKKATCLTDDQRWQSVLARDPNADGEFVFAVRTTGIFCRPSCRARHALRENVSFYANASEALAAGFRPCKRCQPDKANPRQHRLDKITHACR | soluble
GSHMASMTGGQQMGRGSMTQDEMKKAAGWAALKYVEKGSIVGVGTGSTVNHFIDALGTMSEEIKGAVSSSVASTEKLEALGIKIFDCNEVASLDIYVDGADEINADREMIKGGGAALTREKIVAAIADKFICIVDGTKAVDVLGTFPLPVEVIPMARSYVARQLVKLGGDPCYREGVITDNGNVILDVYGMKITNPKQLEDQINAIPGVVTVGLFAHRGADVVITGTPEGAKIEE | soluble
MGSDKIHHHHHHMTFKNDVDGCSYPGILSASRSTDIPAFYAEWFSRRLRDGYVVWKSPFNQKCYSVCFEKAGGIVFWTKNPKPLMPFLDEVSELGYDYYFQFTVNDYESEGFEPNVPPLDERIETFRSLSQKLGKERVIWRFDPICLTRELDVEGIMARLRSIGECLKGYTEQLVISFVDVHAYTKVQRNIKTADGFCLREPSMEEQDELARRISSYAKEIGVSPSACGERRSFAHFGILPNKCIDGELFKRICRKGNIKLQKHLGTYIDQYSLLSPQKKDVTLCKDKGQRKECGCVESKDIGMYNTCNHMCVYCYANTSQRVVEKNRVLHDVNGESLIPTSRTVEE | not soluble
MGSDKIHHHHHHMKIAHVAPLYESVPPRLYGGTERIISYLTEALVDLGHDVTLFASGDTKTSAKLVPCRERALRLDPRPLKSEIAAHLSMLDEVRKRADDFDVIHFHLSHFLHFPFFRDMPQRTVTTPHGRLDYADLAQAYDRFPRFPMVSISRSQRARFASANWLATIHHGLPVDLYEPDFEAGSDGGYLAFLGRMSRDKRPDRAIEIARRTGLKLKLAAKIGDGDRAYFEEVVQPMIDGDRVEYVGEIGEDQKSRFLGNAAALLFPIDWPEPFGLAVIEAMACGTPVMAWSCGAMPEIVDYGVTGFVVETIEDAVATMPALLQLDRRRIRAVFERRFSADRMARDYVEAYSRLRNGHEQSRAS | not soluble
MDPRQFEHTVVADNDIHSIVMSYLLHNCFNETADSLASSTGVKQPAIDRDNMERRKQIIHFILERKALKAFELTEQLAQDLLEKNKDLQFDLLCLHFVELICAGNCTEALKFGKTRLAPFGKVKKYVEKLEDVMALLAYEDPEKSPMFHLLSSEYRQQVADNLNRTILEHTNHPSYTPMERIIQQVTVVRQYLTEENGKDAFPPFSLKDSLKG | soluble
MQRIETRKVKVGSVYVGGDSRVTVQSMTNTDTRDSKKTIEQIKKLEIAGCDIVRCAVPDFDAASSLSEITKNVKLPVVADIHFDYRLALEAIKNGVSALRINPGNIGSKERVELVAKSAKEKNIPIRIGVNSGSLEKDILNKYKRVCSEALVESALNHVKILEDVNFNDIVISIKSSNVQMMIDSYRLISKEVNYPLHLGVTEAGTIWRGTIKSSIGIGTLLSEGIGDTIRVSLTGDPVEEVKVGREILKTFGYLKSGVEFISCPTCGRTSIDLIKIANEVEKRLEKTNKSIKVAVMGCVVNGPGEAREADIGIAGGKGEGLIFKKGEIIKKVKEENLVDELMREIDNMLEHHHHHH | not soluble
MVGQREPAPVEEVKPAPEQPAEPQQPVPTVPSVPTIPQQPGPIEHEDQTAPPAPHIRHYDWNGAMQPMVSKMLGADGVTAGSVLLVDSVNNRTNGSLNAAEATETLRNALANNGKFTLVSAQQLSMAKQQLGLSPQDSLGTRSKAIGIARNVGAHYVLYSSASGNVNAPTLQMQLMLVQTGEIIWSGKGAVSQQLEHHHHHH | soluble
